Common to all, as to settings: tags: N-terminal NLS PKKKRKV; TNT T7 expression from PCR product; label: DIG
For data set [1], the target named is ZF6xHunt (Artificial). Kind of data set: EMSA; specific versus mutated sequences. Background: A gel shift assay detects complexes by their altered migration in electrophoresis.
In data set [2] the target is ZF6xHunt (Artificial). The data set is described as follows: EMSA; binds equally to (GCA)x6.
Data set [3] has as its target ZF6xHunt (Artificial). The data set is described as follows: EMSA; binds equally to (GCA-GCT)x3.

Experimental findings from patent US20130336947, “PEPTIDES AND USES” (FUNDACIÓ PRIVADA CENTRE DE REGULACIÓ GENÓMICA, published 2013) are described below.

ZF6xHunt (Artificial), sequence (chain, as listed by the source): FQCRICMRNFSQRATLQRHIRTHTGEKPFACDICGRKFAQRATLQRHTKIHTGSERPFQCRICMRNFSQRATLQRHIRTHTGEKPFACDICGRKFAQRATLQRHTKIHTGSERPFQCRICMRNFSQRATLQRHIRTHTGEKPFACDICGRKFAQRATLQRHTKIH

B1: (CAG)x7 probe (dsDNA)
DNA 1: CAGCAGCAGCAGCAGCAGCAG
DNA 2: CTGCTGCTGCTGCTGCTGCTG
In the case of B1, in data set [1], the binding result is on record as “binds”.

B2: (GCA-GCT)x3 alternate probe (dsDNA)
DNA 1: GCAGCTGCAGCTGCAGCT
DNA 2: AGCTGCAGCTGCAGCTGC
Turning to B2, the binding result in data set [2] is listed as “binds”.

B3: (GCA)x6 probe (dsDNA)
DNA 1: GCAGCAGCAGCAGCAGCA
DNA 2: TGCTGCTGCTGCTGCTGC
For B3, the binding result in data set [3] is on record as “binds”.
